Experimental data reported in patent US20210238279A1 (Johns Hopkins, published 2021).
Residue numbers refer to the chain shown, from its start.

Columns and labels:
Assay in all cases: immunoblot of HEK293 lysates over-expressing FLAG-tagged ZnT homologs
[1] = target: T1, human ZnT7 with C-terminal FLAG tag (human, UniProt Q8NEW0 1-376)
T1 construct: Commercial HEK293 lysate (Origene), SDS-denatured on immunoblots; not shown: C-terminal FLAG octapeptide
T1 sequence (looked up): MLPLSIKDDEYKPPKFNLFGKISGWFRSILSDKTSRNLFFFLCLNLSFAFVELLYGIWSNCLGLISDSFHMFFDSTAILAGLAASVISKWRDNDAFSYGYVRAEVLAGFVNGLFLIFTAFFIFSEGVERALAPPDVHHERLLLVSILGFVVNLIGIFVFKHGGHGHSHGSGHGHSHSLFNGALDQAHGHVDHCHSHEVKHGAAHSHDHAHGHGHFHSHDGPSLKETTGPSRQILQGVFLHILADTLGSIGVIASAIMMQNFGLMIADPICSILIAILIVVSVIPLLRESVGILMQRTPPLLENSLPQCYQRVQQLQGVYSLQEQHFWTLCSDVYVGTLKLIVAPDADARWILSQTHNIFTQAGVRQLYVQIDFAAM
From the text: (§1) FIG. 7A-7D. mAb binding specificities (FIG. 7A) mAb binding to ZnT8-His immobilized to Ni-NTA plate. Bound mAb20 (red) or mAb39 (magenta) was detected by an HRP-conjugated secondary antibody. Solid lines are least-squares fits of binding datapoints to a one-component binding process. Error bars are standard errors (n=8). (FIG. 7B) SDS-denatured mouse ZnT8-His (labeled as M) and human ZnT8-His (labeled as H) on immunoblots were detected by mAb20 or mAb39 as indicated. […] (FIG. 7C) Detection of endogenous human ZnT8 in EndoC-βH cells by mAb20 or […] immunoblotting. An equal amount of EndoC-βH lysate (5 μg total protein) was loaded to each lane. (FIG. 7D) Immunoblotting of HEK lysates with or with over-expression of a ZnT homolog as indicated. An approximately equal amount of total lysate protein (5 μg) was located to each lane, probed by either mAb20, mAb39, or anti-FALG antibody as indicated. FIG. 8. HTRF response to human ZnT8, mouse ZnT8 and human ZnT3.
(§2) Immunoblotting. SDS-solubilized cell lysate of EndoC-β cells or HEK293 cells over-expressing ZnT8 was subjected to SDS-PAGE and probed with a 1:3000 mAb20 or mAb39, followed by 1:3000 anti-mouse HRP-conjugated secondary antibody (GE Healthcare cat. #NA931V). A duplicated gel was Coomassie-stained to show an equal protein loading for each lane ([…]). To compare the mAb20 or mAb39 reactivities to different ZnT homolog, we used commercial HEK293 lysates with lentivirus-mediated over-expression of ZnT1, ZnT2, ZnT3, ZnT4, ZnT7, ZnT8, ZnT10, each is tagged by a Flag tag at the C-terminus (Origene, catalog nos. LY500001, LC412033, LC423751, LC401170, LY415673, LC428544, LC406320, and LC412886). Approximately equal amounts of total protein (5 μg) was loaded to each lane, and then probed with mAb20, mAb39, or anti-FLAG antibody (Origene, catalog no. TA50011-100) as above. The expression levels of ZnT homologs varied with ZnT1 most abundantly expressed.

[2] = target: T2, human ZnT2 with C-terminal FLAG tag (human, UniProt Q9BRI3 1-372, limits assumed)
T2 construct: Commercial HEK293 lysate (Origene), SDS-denatured on immunoblots; not shown: C-terminal FLAG octapeptide
T2 sequence (looked up): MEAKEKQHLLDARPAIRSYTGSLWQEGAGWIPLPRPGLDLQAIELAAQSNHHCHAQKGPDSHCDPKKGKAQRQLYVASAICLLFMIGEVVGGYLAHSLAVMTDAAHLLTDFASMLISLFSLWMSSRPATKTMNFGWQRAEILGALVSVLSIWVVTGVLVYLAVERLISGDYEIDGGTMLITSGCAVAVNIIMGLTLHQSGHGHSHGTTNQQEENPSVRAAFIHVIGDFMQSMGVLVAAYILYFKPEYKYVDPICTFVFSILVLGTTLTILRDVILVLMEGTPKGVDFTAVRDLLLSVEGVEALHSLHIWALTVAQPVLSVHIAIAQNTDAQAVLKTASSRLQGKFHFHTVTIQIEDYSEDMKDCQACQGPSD
From the text: as §1, §2

[3] = target: T3, human ZnT3 with C-terminal FLAG tag (human, UniProt Q99726 1-388)
T3 construct: Commercial HEK293 lysate (Origene), SDS-denatured on immunoblots; not shown: C-terminal FLAG octapeptide
T3 sequence (looked up): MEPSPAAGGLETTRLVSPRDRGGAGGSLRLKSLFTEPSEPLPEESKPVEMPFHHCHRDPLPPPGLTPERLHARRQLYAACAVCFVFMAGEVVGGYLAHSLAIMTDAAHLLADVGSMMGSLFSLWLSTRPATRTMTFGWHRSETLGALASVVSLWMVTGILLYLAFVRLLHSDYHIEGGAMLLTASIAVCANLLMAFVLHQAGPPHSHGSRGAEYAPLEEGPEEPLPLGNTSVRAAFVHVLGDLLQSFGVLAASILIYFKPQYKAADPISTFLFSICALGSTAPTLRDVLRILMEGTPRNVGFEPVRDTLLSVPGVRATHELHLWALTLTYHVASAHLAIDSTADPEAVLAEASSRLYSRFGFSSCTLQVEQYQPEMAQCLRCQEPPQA
From the text: as §1, §2

[4] = target: T4, human ZnT10 with C-terminal FLAG tag (human, UniProt Q6XR72 1-485, limits assumed)
T4 construct: Commercial HEK293 lysate (Origene), SDS-denatured on immunoblots; not shown: C-terminal FLAG octapeptide
T4 sequence (looked up): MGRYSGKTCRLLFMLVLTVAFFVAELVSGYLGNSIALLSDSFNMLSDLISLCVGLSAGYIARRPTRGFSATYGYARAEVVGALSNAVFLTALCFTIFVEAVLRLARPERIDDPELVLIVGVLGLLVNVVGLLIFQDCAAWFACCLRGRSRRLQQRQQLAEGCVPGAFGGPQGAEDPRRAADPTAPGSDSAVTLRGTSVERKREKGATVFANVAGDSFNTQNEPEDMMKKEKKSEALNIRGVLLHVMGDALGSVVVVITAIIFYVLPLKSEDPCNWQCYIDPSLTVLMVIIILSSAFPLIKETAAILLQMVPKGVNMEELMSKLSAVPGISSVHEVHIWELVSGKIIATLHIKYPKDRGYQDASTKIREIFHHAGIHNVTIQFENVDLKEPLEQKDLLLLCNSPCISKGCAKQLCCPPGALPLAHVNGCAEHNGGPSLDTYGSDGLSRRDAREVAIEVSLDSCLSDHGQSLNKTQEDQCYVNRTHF
From the text: as §1, §2

Measured: binding result

B1: mAb20 (antibody, V domains shown)
VH: QIQLVQSGPELKKPGETVKISCKASGYIFTNYPMHWVKQAPGKGLKWMGWINTYSGVPTHADDFKGRFAFSLETSANSAFLQINNLKNEDTATYFCTRSRITPTGGYAMDYWGQGTSVTVSS
VL: DVVMTQTPLSLPVSLGDQASISCRSSQSLVHSNGNTYLHWYLQKPGQSPNLLISKVSNRFSGVPERFSGSGSGTDFTLKISRVEAEDLGVYFCSQNTHVPWTFGGGTKLEIKR
notes: Mouse hybridoma mAb purified on protein A/G; In some assays it was labelled with Alexa Fluor 488 or terbium cryptate; also called monoclonal antibody mAb20; anti-ZnT8 mAb20
no binding: all assays above

B2: mAb39 (antibody, V domains shown)
VH: QVQLQQPGAELVKPGASVKLSCKASGYSFTTYWMHWVKQRPGQGLEWVGDINPRNGRTNYNEKSKSKATLTVDISSSTVYMQVSSLTSEDSAVYYCAIWSGAMDYWGPGTSVTVSS
VL: B1 VL with A19P, R24K, S32N, N50K, S54Y, E65D, N96T, W101P
notes: Mouse hybridoma mAb purified on protein A/G; In some assays it was labelled with Alexa Fluor 555 or d2; also called monoclonal antibody mAb39; anti-ZnT8 mAb39
no binding: all assays above
